T1: Rap1V12 (Rap1-activated mutant) (human, UniProt P62834 1-184, limits assumed)
T1 construct: also called active Rap1V12
T1 chain: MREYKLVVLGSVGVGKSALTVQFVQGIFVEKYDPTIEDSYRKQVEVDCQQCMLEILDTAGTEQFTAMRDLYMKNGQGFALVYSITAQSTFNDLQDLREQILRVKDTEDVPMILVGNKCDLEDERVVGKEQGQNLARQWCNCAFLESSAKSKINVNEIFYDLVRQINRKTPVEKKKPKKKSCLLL

T2: GTP-Rap1 (human, UniProt P62833 1-184 (bovine entry), limits assumed)
T2 sequence: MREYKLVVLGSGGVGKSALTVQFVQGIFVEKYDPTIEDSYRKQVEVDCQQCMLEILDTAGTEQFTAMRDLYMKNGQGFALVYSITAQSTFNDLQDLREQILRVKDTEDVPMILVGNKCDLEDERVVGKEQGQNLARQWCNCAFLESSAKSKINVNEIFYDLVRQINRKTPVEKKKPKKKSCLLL

B1: human p30 (RAPL), wild type (other)
chain: MTVDSSMSSGYCSLDEELEDCFFTAKTTFFRNAQSKHLSKNVCKPVEETQRPPTLQEIKQKIDSYNTREKNCLGMKLSEDGTYTGFIKVHLKLRRPVTVPAGIRPQSIYDAIKEVNLAATTDKRTSFYLPLDAIKQLHISSTTTVSEVIQGLLKKFMVVDNPQKFALFKRIHKDGQVLFQKLSIADRPLYLRLLAGPDTEVLSFVLKENETGEVEWDAFSIPELQNFLTILEKEEQDKIQQVQKKYDKFRQKLEEALRESQGKPG
notes: also called hp30; wild type p30

Columns and labels:
[1] = target: Rap1 (of the BAF cells, in chemokine-stimulated migration); assay: cell-based or functional assay
[2] = target: T1, Rap1V12 (Rap1-activated mutant); assay: yeast two-hybrid screen, Rap1V12 as bait
Source text: To identify a molecule that associates with Rap1, the human leukocyte cDNA library was screened by a yeast two-hybrid method using a Rap1-activated mutant Rap1V12 as bait. As a result, a molecule that encodes a protein of a molecular weight of 30,000 having a Ras/Rap binding domain (RBD) was isolated and termed as p30 (FIG. 1). […] It was found from an analysis of the human genome database that p30 is an alternative splicing product of Norel. Mouse p30 cDNA was also isolated by a RT-PCR method.

GTP-Rap1 = target: T2, GTP-Rap1; assay: binding to GTP-Rap1, assay not detailed
[3] = target: B1; assay: association of Rap1V12 point mutants with p30, assay not detailed

binding result [3] | Binder | other results
 | B1 | cell migration on ICAM-1 in the presence of SDF-1 (CXCL12) (20 nM) [1]: ~2 fold; binding result [2]: binds
 | p30RBDm (RBD-domain mutant of p30) (other) MTVDSSMSSGYCSLDEELEDCFFTAKTTFFRNAQSKHLSKNVCKPVEETQRPPTLQEIKQKIDSYNTREKNCLGMKLSEDGTYTGFIKVHLKLRRPVTVPAGIRPQSIYDAIKEVNLAATTDAATSFYLPLDAIAQLHISSTTTVSEVIQGLLAAFMVVAAPQKFALFKRIHKDGQVLFQKLSIADRPLYLRLLAGPDTEVLSFVLKENETGEVEWDAFSIPELQNFLTILEKEEQDKIQQVQKKYDKFRQKLEEALRESQGKPG | binding result (GTP-Rap1): no binding
binds | Rap1V12 E37G (enzyme, Point mutation in the effector region of the active Rap1V12) MREYKLVVLGSVGVGKSALTVQFVQGIFVEKYDPTIGDSYRKQVEVDCQQCMLEILDTAGTEQFTAMRDLYMKNGQGFALVYSITAQSTFNDLQDLREQILRVKDTEDVPMILVGNKCDLEDERVVGKEQGQNLARQWCNCAFLESSAKSKINVNEIFYDLVRQINRKTPVEKKKPKKKSCLLL | 
no binding | Rap1V12 Y40C (enzyme, Point mutation in the effector region of the active Rap1V12) MREYKLVVLGSVGVGKSALTVQFVQGIFVEKYDPTIEDSCRKQVEVDCQQCMLEILDTAGTEQFTAMRDLYMKNGQGFALVYSITAQSTFNDLQDLREQILRVKDTEDVPMILVGNKCDLEDERVVGKEQGQNLARQWCNCAFLESSAKSKINVNEIFYDLVRQINRKTPVEKKKPKKKSCLLL | 
no binding | Rap1V12 T35E (enzyme, Point mutation in the effector region of the active Rap1V12) MREYKLVVLGSVGVGKSALTVQFVQGIFVEKYDPEIEDSYRKQVEVDCQQCMLEILDTAGTEQFTAMRDLYMKNGQGFALVYSITAQSTFNDLQDLREQILRVKDTEDVPMILVGNKCDLEDERVVGKEQGQNLARQWCNCAFLESSAKSKINVNEIFYDLVRQINRKTPVEKKKPKKKSCLLL | 
no binding | Rap1V12 D38E (enzyme, Point mutation in the effector region of the active Rap1V12) MREYKLVVLGSVGVGKSALTVQFVQGIFVEKYDPTIEESYRKQVEVDCQQCMLEILDTAGTEQFTAMRDLYMKNGQGFALVYSITAQSTFNDLQDLREQILRVKDTEDVPMILVGNKCDLEDERVVGKEQGQNLARQWCNCAFLESSAKSKINVNEIFYDLVRQINRKTPVEKKKPKKKSCLLL | 
